The chains are these.
B1: PDLIM4 (parent)
chain: FLDERLYCESHAKARVKPPEGYDV
B2: ATL3 (parent)
chain: FSFRYQQELEEEIKELYENFCKHN
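Also: lentivirally expressed fusions sorted by FACS into six bins by GFP to DsRed ratio, PSI derived from sequencing read proportions per bin multiplied by bin number.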

In the first data set the parent is B1. The experiment in a line: protein stability index of a GFP-peptide fusion (GPS, HEK-293T) (PSI 1-6); higher = more stable. The conditions noted are these: c terminus: a fixed tail appended.
As to VLDERLYCESHAKARVKPPEGYDV [F1V], the protein stability index was determined as 3.92. Same read-out and setting: the figure for ALDERLYCESHAKARVKPPEGYDV [F1A] is 4.23. On the same count and under the same terms, the value for YLDERLYCESHAKARVKPPEGYDV [F1Y] was 1.3. Still for that read-out and setting: the figure for DLDERLYCESHAKARVKPPEGYDV [F1D] is 4.34; for ILDERLYCESHAKARVKPPEGYDV [F1I] it is 4.27.

Take QLDERLYCESHAKARVKPPEGYDV [F1Q]: the protein stability index came to 4.58. For SLDERLYCESHAKARVKPPEGYDV [F1S], the protein stability index was found to be 4.63. Still for that read-out and setting: the figure for LLDERLYCESHAKARVKPPEGYDV [F1L] is 3.89; for NLDERLYCESHAKARVKPPEGYDV [F1N] it is 4.21; for RLDERLYCESHAKARVKPPEGYDV [F1R] it is 4.28. As to KLDERLYCESHAKARVKPPEGYDV [F1K], the protein stability index was found to be 4.43. On the same count and under the same terms, the figure for PLDERLYCESHAKARVKPPEGYDV [F1P] is 5.

As for MLDERLYCESHAKARVKPPEGYDV [F1M], the protein stability index was found to be 4.29. On the same count and under the same terms, the value for HLDERLYCESHAKARVKPPEGYDV [F1H] was 4.26.

CLDERLYCESHAKARVKPPEGYDV [F1C]: the protein stability index came out at 3.43.

As to WLDERLYCESHAKARVKPPEGYDV [F1W], the protein stability index stood at 2.5.

Take ELDERLYCESHAKARVKPPEGYDV [F1E]: the protein stability index was 4.68. Still for that read-out and setting: the value for TLDERLYCESHAKARVKPPEGYDV [F1T] was 4.72. Same read-out and setting: the value for FMDERLYCESHAKARVKPPEGYDV [L2M] was 1.67; that for FWDERLYCESHAKARVKPPEGYDV [L2W] was 2.47.

Take FADERLYCESHAKARVKPPEGYDV [L2A]: the protein stability index turned out to be 1.81. The same measure, in the same setting: the value for FVDERLYCESHAKARVKPPEGYDV [L2V] was 2.42; that for FKDERLYCESHAKARVKPPEGYDV [L2K] was 3.99. The same measure, in the same setting: the value for FIDERLYCESHAKARVKPPEGYDV [L2I] was 1.38. Same read-out and setting: the value for FPDERLYCESHAKARVKPPEGYDV [L2P] was 2.98. On to FDDERLYCESHAKARVKPPEGYDV [L2D], for which the protein stability index was 4.28. Take FFDERLYCESHAKARVKPPEGYDV [L2F]: the protein stability index is 3.46. Take FCDERLYCESHAKARVKPPEGYDV [L2C]: the protein stability index amounted to 1.96. The same measure, in the same setting: the figure for FTDERLYCESHAKARVKPPEGYDV [L2T] is 2.54; for FSDERLYCESHAKARVKPPEGYDV [L2S] it is 3.37; for FQDERLYCESHAKARVKPPEGYDV [L2Q] it is 2.12.

For the variant FNDERLYCESHAKARVKPPEGYDV [L2N], the protein stability index is 3.48.

FYDERLYCESHAKARVKPPEGYDV [L2Y]: the protein stability index was 3.53. On the same count and under the same terms, the value for FRDERLYCESHAKARVKPPEGYDV [L2R] was 2.96; that for FGDERLYCESHAKARVKPPEGYDV [L2G] was 3.4. Same read-out and setting: the figure for FHDERLYCESHAKARVKPPEGYDV [L2H] is 2.24.

For FLFERLYCESHAKARVKPPEGYDV [D3F], the protein stability index amounted to 2.66. Same read-out and setting: the figure for FLGERLYCESHAKARVKPPEGYDV [D3G] is 1.92; for FLKERLYCESHAKARVKPPEGYDV [D3K] it is 2.49. Same read-out and setting: the figure for FLCERLYCESHAKARVKPPEGYDV [D3C] is 3.79. On the same count and under the same terms, the value for FLLERLYCESHAKARVKPPEGYDV [D3L] was 2.27; that for FLIERLYCESHAKARVKPPEGYDV [D3I] was 1.94.

In the case of FLAERLYCESHAKARVKPPEGYDV [D3A], the protein stability index was 2.14. For the variant FLMERLYCESHAKARVKPPEGYDV [D3M], the protein stability index was 1.48. Take FLPERLYCESHAKARVKPPEGYDV [D3P]: the protein stability index came to 2.64.

For the variant FLQERLYCESHAKARVKPPEGYDV [D3Q], the protein stability index came out at 1.53.

As for FLEERLYCESHAKARVKPPEGYDV [D3E], the protein stability index is 1.94. FLHERLYCESHAKARVKPPEGYDV [D3H]: the protein stability index was found to be 2.39.

As to FLNERLYCESHAKARVKPPEGYDV [D3N], the protein stability index stood at 1.21.

In a further data set the parent is B2. The description is as above. The following applies: c terminus: a fixed tail appended.
On to FSFRYQQELEEEIKELYEHFCKHN [N19H], for which the protein stability index was determined as 1.97. Still for that read-out and setting: the figure for FSFRYQQELEEEIKELYEGFCKHN [N19G] is 1.73; for FSFRYQQELEEEIKELYEQFCKHN [N19Q] it is 2.04. Take FSFRYQQELEEEIKELYEVFCKHN [N19V]: the protein stability index came to 1.81. The same measure, in the same setting: the figure for FSFRYQQELEEEIKELYECFCKHN [N19C] is 2.02. Still for that read-out and setting: the value for FSFRYQQELEEEIKELYEWFCKHN [N19W] was 1.73. Consider FSFRYQQELEEEIKELYEYFCKHN [N19Y], for which the protein stability index came out at 1.89. The same measure, in the same setting: the value for FSFRYQQELEEEIKELYEFFCKHN [N19F] was 1.72; that for FSFRYQQELEEEIKELYEAFCKHN [N19A] was 2.28; that for FSFRYQQELEEEIKELYEPFCKHN [N19P] was 2.16. Same read-out and setting: the figure for FSFRYQQELEEEIKELYETFCKHN [N19T] is 1.99. On the same count and under the same terms, the value for FSFRYQQELEEEIKELYEEFCKHN [N19E] was 2.06.

On to FSFRYQQELEEEIKELYEIFCKHN [N19I], for which the protein stability index is 2.04.

For FSFRYQQELEEEIKELYERFCKHN [N19R], the protein stability index turned out to be 2.31. The same measure, in the same setting: the value for FSFRYQQELEEEIKELYELFCKHN [N19L] was 1.98. Regarding FSFRYQQELEEEIKELYEMFCKHN [N19M], the protein stability index is 1.66.

In the case of FSFRYQQELEEEIKELYEKFCKHN [N19K], the protein stability index is 1.92.

Turning to FSFRYQQELEEEIKELYEDFCKHN [N19D], the protein stability index worked out at 1.44. The same measure, in the same setting: the figure for FSFRYQQELEEEIKELYESFCKHN [N19S] is 2.41; for FSFRYQQELEEEIKELYENFKKHN [C21K] it is 2.66. As to FSFRYQQELEEEIKELYENFGKHN [C21G], the protein stability index was determined as 2.55. Turning to FSFRYQQELEEEIKELYENFQKHN [C21Q], the protein stability index came out at 3.08. The same measure, in the same setting: the value for FSFRYQQELEEEIKELYENFYKHN [C21Y] was 1.77.

Turning to FSFRYQQELEEEIKELYENFHKHN [C21H], the protein stability index is 2.18. For the variant FSFRYQQELEEEIKELYENFVKHN [C21V], the protein stability index was 2.62.

Regarding FSFRYQQELEEEIKELYENFSKHN [C21S], the protein stability index was 2.48. On the same count and under the same terms, the value for FSFRYQQELEEEIKELYENFTKHN [C21T] was 1.97; that for FSFRYQQELEEEIKELYENFWKHN [C21W] was 2.31.

As to FSFRYQQELEEEIKELYENFIKHN [C21I], the protein stability index worked out at 2.05.

Take FSFRYQQELEEEIKELYENFNKHN [C21N]: the protein stability index is 2.58. For FSFRYQQELEEEIKELYENFAKHN [C21A], the protein stability index was determined as 3.33. Regarding FSFRYQQELEEEIKELYENFDKHN [C21D], the protein stability index was found to be 3.33. Still for that read-out and setting: the figure for FSFRYQQELEEEIKELYENFRKHN [C21R] is 2.46. Regarding FSFRYQQELEEEIKELYENFFKHN [C21F], the protein stability index came out at 2.1. On the same count and under the same terms, the value for FSFRYQQELEEEIKELYENFPKHN [C21P] was 2.11.

As for FSFRYQQELEEEIKELYENFEKHN [C21E], the protein stability index stood at 3.12. Turning to FSFRYQQELEEEIKELYENFLKHN [C21L], the protein stability index amounted to 2.13.

Turning to FSFRYQQELEEEIKELYENFMKHN [C21M], the protein stability index is 2.32. Still for that read-out and setting: the value for FSFRYQQELEEEIKELYWNFCKHN [E18W] was 1.34; that for FSFRYQQELEEEIKELYQNFCKHN [E18Q] was 1.8; that for FSFRYQQELEEEIKELYLNFCKHN [E18L] was 1.55.

Take FSFRYQQELEEEIKELYSNFCKHN [E18S]: the protein stability index turned out to be 1.91. Still for that read-out and setting: the value for FSFRYQQELEEEIKELYKNFCKHN [E18K] was 1.72; that for FSFRYQQELEEEIKELYHNFCKHN [E18H] was 1.89; that for FSFRYQQELEEEIKELYDNFCKHN [E18D] was 2.6.

These data come from the supplement of paper PMC10567573.
